Test results from PMC10440015.
Values joined by “and” are separate entries in the source; they are usually repeats but may differ in a detail not shown here. Identical values can stand only once.

How the values were obtained:
KFNHWFG-Toyopearl resin [1] = assay: affinity chromatography
WKAHNKG-Toyopearl resin = assay: affinity chromatography
GYISRHPG-Toyopearl resin = assay: affinity chromatography
…-Toyopearl resin = assay: affinity chromatography
FNHFFIG-Toyopearl resin = assay: affinity chromatography
FFNFFKG-Toyopearl resin [2] = assay: affinity chromatography
[3] = target: the peptide-based adsorbents; assay: affinity chromatography
WWIKISG-Toyopearl resin = assay: affinity chromatography
KWWIWAG-Toyopearl resin = assay: affinity chromatography
KFNHWFG-Toyopearl resin [4] = assay: batch adsorption isotherm
KFNHWFG-Toyopearl resin [5] = assay: breakthrough chromatography
FFNFFKG-Toyopearl resin [6] = assay: breakthrough chromatography

Substance: Adeno-associated virus serotype 2 capsid (complex)
- loss (AAV titer in flow-through and wash vs. load) (KFNHWFG-Toyopearl resin [1]): < 1.7%
- yield (AAV titer in elution fraction vs. load) (KFNHWFG-Toyopearl resin [1]): 45%
- loss (AAV titer in flow-through and wash vs. load) (WKAHNKG-Toyopearl resin): < 1.7%
- yield (AAV titer in elution fraction vs. load) (WKAHNKG-Toyopearl resin): 79.8%
- loss (AAV titer in flow-through and wash vs. load) (GYISRHPG-Toyopearl resin): < 1.7%
- loss (AAV titer in flow-through and wash vs. load) (…-Toyopearl resin): < 1.7%
- yield (AAV titer in elution fraction vs. load) (…-Toyopearl resin): 54.9% and 44.8%
- loss (AAV titer in flow-through and wash vs. load) (FNHFFIG-Toyopearl resin): < 1.7%
- loss (AAV titer in flow-through and wash vs. load) (FFNFFKG-Toyopearl resin [2]): < 1.7%
- loss (AAV titer in flow-through and wash vs. load) [3]: 1 to 4%
- yield (AAV titer in elution fraction vs. load) [3]: 40 to 65%
- loss (AAV titer in flow-through and wash vs. load) (WWIKISG-Toyopearl resin): < 1.7%
- loss (AAV titer in flow-through and wash vs. load) (KWWIWAG-Toyopearl resin): < 1.7%
- Kd (KFNHWFG-Toyopearl resin [4]): 0.16 pM
- DBC10% (dynamic binding capacity at 10% breakthrough) (vp AAV per mL of resin) (KFNHWFG-Toyopearl resin [5]): 1.33e+13
- DBC10% (dynamic binding capacity at 10% breakthrough) (vp AAV per mL of resin) (FFNFFKG-Toyopearl resin [6]): 1.4e+13

Substance: Adeno-associated virus serotype 9 capsid (complex)
- yield (AAV titer in elution fraction vs. load) (…-Toyopearl resin): 61.7% and 43.9% and 53.7%
- yield (AAV titer in elution fraction vs. load) (FFNFFKG-Toyopearl resin [2]): 72.4%
- yield (AAV titer in elution fraction vs. load) (KWWIWAG-Toyopearl resin): 57.2%
